Legend:
[1] = molecular target: His6-tetraCys-X-MBP protease substrate 22-F [MBP: P0AEX9]
[2] = molecular target: His6-tetraCys-X-MBP protease substrate 24-F [MBP: P0AEX9]
[3] = molecular target: His6-tetraCys-X-MBP protease substrate 25-F [MBP: P0AEX9]
[4] = molecular target: His6-tetraCys-X-MBP protease substrate 21-F [MBP: P0AEX9]
[5] = molecular target: His6-tetraCys-X-MBP protease substrate 23-F [MBP: P0AEX9]
[6] = molecular target: At3g16990 fusion protein expressed from pVP15
[7] = molecular target: At3g03410 fusion protein expressed from pVP14
[8] = molecular target: His6-tetraCys-X-MBP protease substrate 26-F [MBP: P0AEX9]

B1: tobacco etch virus (TEV) protease (protein)
chain: GESLFKGPRDYNPISSTICHLTNESDGHTTSLYGIGFGPFIITNKHLFRRNNGTLLVQSLHGVFKVKNTTTLQQHLIDGRDMIIIRMPKDFPPFPQKLKFREPQREERICLVTTNFQTKSMSSMVSDTSCTFPSSDGIFWKHWIQTKDGQCGSPLVSTRDGFIVGIHSASNFTNTNNYFTSVPKNFMELLTNQEAQQWVSGWRLNADSVLWGGHKVFMSKPEEPFQPVKEATQLMNELVYSQ
B1 gave a relative rate of reaction (initial proteolysis rate by fluorescence anisotropy, normalised to the cognate substrate) (relative rate) [1] of 0, a relative rate of reaction (initial proteolysis rate by fluorescence anisotropy, normalised to the cognate substrate) (relative rate) [2] of -0.01 and a relative rate of reaction (initial proteolysis rate by fluorescence anisotropy, normalised to the cognate substrate) (relative rate) [3] of 0. For the same protein, the “fluorescence anisotropy and SDS-PAGE” value [4] was “underwent a minor amount of proteolysis”, the relative rate of reaction (initial proteolysis rate by fluorescence anisotropy, normalised to the cognate substrate) (relative rate) [4] was 0.01 and the relative rate of reaction (initial proteolysis rate by fluorescence anisotropy, normalised to the cognate substrate) (relative rate) [5] was -0.02. The “fluorescence anisotropy over time” value [6] was “a time-dependent decrease in anisotropy was observed”, the “fluorescence anisotropy over time” value [7] was “time-dependent decreases in anisotropy” and the relative rate of reaction (initial proteolysis rate by fluorescence anisotropy, normalised to the cognate substrate) (relative rate) [8] was 1. The “specific reaction rate (slope of initial proteolysis rate versus protease concentration)” value [8] was “TEV protease; 17.3±0.7”.

From patent US20050227306
